Measured values from US20220403048A1 (CANCER RESEARCH TECHNOLOGY, published 2022).
Substitutions are numbered along the chain they refer to.

Legend:
[1] = target: T1, recombinant human monomeric ARG2 (human, UniProt P78540 23-354); assay: cell-based or functional assay
T1 sequence (looked up): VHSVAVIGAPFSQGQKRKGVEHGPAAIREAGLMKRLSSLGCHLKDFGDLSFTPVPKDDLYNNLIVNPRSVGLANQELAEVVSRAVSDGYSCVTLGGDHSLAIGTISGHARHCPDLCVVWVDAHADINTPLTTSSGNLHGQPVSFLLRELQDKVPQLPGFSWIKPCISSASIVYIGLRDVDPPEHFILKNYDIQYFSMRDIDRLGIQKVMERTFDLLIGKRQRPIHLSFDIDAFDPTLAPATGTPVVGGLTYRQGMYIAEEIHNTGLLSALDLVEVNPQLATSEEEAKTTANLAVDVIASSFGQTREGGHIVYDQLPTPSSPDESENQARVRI

[2] = target: T2, THP-1 lysate derived human trimeric ARG2 (human, UniProt P78540 23-354, limits assumed); assay: cell-based or functional assay
T2 sequence (looked up): T1 sequence (looked up) with Q253E

[3] = target: T3, biotinylated recombinant human trimeric ARG2 enzyme (Avi-huARG2-His10) (human, UniProt P78540 23-354, biotinylated); assay: HTRF epitope competition, scFv titrated, competitor C0020187 IgG, on biotinylated human trimeric ARG2
T3 construct: also called avi-Arg2-His10; bio-ARG2
T3 chain: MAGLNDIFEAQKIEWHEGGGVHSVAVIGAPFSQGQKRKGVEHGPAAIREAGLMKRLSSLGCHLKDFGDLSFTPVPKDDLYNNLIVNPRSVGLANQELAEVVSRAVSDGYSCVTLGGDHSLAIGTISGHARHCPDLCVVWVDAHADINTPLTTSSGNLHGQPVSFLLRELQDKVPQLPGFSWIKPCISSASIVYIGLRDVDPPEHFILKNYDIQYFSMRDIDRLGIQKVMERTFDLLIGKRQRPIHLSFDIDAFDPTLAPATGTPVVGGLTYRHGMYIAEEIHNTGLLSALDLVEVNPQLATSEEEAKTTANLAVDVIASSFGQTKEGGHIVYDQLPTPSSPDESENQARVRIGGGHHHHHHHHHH

[4] = target: T4, biotinylated recombinant cynomolgus monkey trimeric ARG2 enzyme (Avi-cynoARG2-His10) (cynomolgus monkey, UniProt P78540 23-354 (human entry), biotinylated); assay: HTRF direct binding assay, biotinylated recombinant cynomolgus trimeric ARG2, streptavidin cryptate and anti-c-myc-XL665, Delta F %
T4 construct: also called cynomolgus ARG2
T4 chain: T3 chain with A189P, R231Q, H273E, K325R, D333G

[5] = target: T5, biotinylated recombinant human trimeric ARG1 enzyme (Avi-huARG1-His10) (human, UniProt P05089 1-322, biotinylated in HTRF and streptavidin BLI assays); assay: HTRF direct binding assay, biotinylated recombinant human trimeric ARG1
T5 construct: also called Human ARG1; recombinant ARG1
T5 sequence: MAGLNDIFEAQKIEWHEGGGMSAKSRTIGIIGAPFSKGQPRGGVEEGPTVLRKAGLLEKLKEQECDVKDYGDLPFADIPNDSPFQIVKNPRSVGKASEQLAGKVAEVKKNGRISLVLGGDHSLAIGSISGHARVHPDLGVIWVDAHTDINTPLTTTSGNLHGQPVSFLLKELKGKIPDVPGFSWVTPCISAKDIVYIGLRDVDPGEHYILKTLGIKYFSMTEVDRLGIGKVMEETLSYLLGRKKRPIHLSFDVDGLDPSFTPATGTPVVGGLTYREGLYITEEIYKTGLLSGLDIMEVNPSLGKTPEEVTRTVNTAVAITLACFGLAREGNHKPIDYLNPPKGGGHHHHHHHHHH

[6] = target: T6, recombinant human trimeric ARG2 enzyme (construct not given) (human, UniProt P78540 23-354); assay: cell-based or functional assay
T6 sequence (looked up): T1 sequence (looked up) with Q253E

[7] = target: T3, biotinylated recombinant human trimeric …; assay: HTRF direct binding assay, biotinylated recombinant human trimeric ARG2, streptavidin cryptate and anti-c-myc-XL665, % Delta F
Procedure: In this assay, binding of unpurified scFv to recombinant human trimeric ARG2 enzyme was assessed by measuring the fluorescence resonance energy transfer (FRET) between the c-myc tagged scFv and the biotinylated enzyme using streptavidin cryptate and anti-c-myc-XL665 detection reagents (CisBio International, France; cat: 610SAKLB and 61 MYCXLB respectively). Selection outputs were screened as unpurified bacterial periplasmic extracts containing scFv, prepared in 200 mM tris buffer pH 7.4, 0.5 mM EDTA and 0.5 M sucrose. 5 μl of unpurified scFv samples were added to a Greiner® 384 well assay plate (Greiner Bio-one, UK; cat: 784076). This was followed by the addition of 5 μl of 12 nM recombinant human trimeric ARG2 enzyme, 5 μl of 6.67 nM streptavidin cryptate and 5 μl 40 nM anti-c-myc-XL665. […] Assay plates were incubated overnight at 4° C. prior to reading time resolved fluorescence on a Pherastar plate reader ([…]) using an excitation wavelength of 320 nm and measuring the emission at 620 nm and 665 nm (100 flashes).
The ARG2 binding profile of each purified scFv was determined by testing a dilution series of the purified scFv in the HTRF™ assay described in section 1.4, substituting the unpurified scFv periplasmic preparation with the purified scFv. […]

[8] = target: T2, THP-1 lysate derived human trimeric ARG2; assay: cell-based or functional assay; remark: listed apart in the source
[9] = target: T6, recombinant human trimeric ARG2 enzyme …; assay: cell-based or functional assay; remark: listed apart in the source
[10] = target: T3, biotinylated recombinant human trimeric …; assay: BLI (OctetRED) extended assay, bio-ARG2 on streptavidin, Fab as analyte, 1:1 fit
Procedure: (§1) The affinities of the second-generation antibodies to human ARG2 were measured on the OctetRED system. A screening assay which stably captures His-tagged ARG2 as the ligand on an anti-His surface was utilised to screen the second-generation candidates as Fabs at an analyte range of 1.8 to 120 nM, with an association time of 5 minutes and a dissociation time of 10 minutes. Sensors were regenerated using 10 mM glycine pH 1.5 after each cycle. Based on this assay, six candidates with estimated affinities in the sub-nanomolar range were identified, and they were further profiled using an extended assay which is more suitable for antibodies of high affinities. In the extended assay, the association and dissociation times were extended to 10 and 40 minutes respectively, using a lower Fab analyte titration range of 0.47 to 30 nM, on a streptavidin surface which captures bio-ARG2 as the ligand. The sensorgrams were reference subtracted and fitted to the 1:1 binding model to estimate their binding affinities using the Octet analysis software.

[11] = target: T4, biotinylated recombinant cynomolgus …; assay: BLI (OctetRED) extended assay, biotinylated cyno ARG2 on streptavidin, Fab as analyte, 1:1 fit
Procedure: as §1
The affinities of some of these antibodies to cynomolgus ARG2 were determined using the same assay, and the derived kinetic parameters are shown in Table 21.

[12] = target: T5, biotinylated recombinant human trimeric …; assay: BLI (OctetRED), His-tagged ligand on anti-His surface

B1: C0020187 recombinant human IgG1 (antibody, V domains shown)
VH: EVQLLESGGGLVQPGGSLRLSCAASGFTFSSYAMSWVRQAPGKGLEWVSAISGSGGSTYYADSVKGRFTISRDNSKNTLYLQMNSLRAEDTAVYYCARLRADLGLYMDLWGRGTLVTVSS
VL: QSVLTQPPSVSAAPGQKVTISCSGSSSNIGNHYVSWYQQLPGTAPKLLIYDNSERPSGIPDRFSGSKSGTSATLGITGLQTGDEADYYCGTWDSSLSALVFGGGTKLTVL
IC50 (read off the curve) [1]: ~4 nM
THP-1 ARG2 EIA IC50 [2]: 649 nM

B2: C0020187 scFv (scFv, V domains shown)
VH: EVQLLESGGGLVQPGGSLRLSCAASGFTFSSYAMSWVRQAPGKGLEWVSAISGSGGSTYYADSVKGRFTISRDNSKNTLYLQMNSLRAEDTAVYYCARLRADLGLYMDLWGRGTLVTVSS
VL: B1 VL
notes: c-myc tagged scFv; also called parent C0020187 scFv
IC50 [3]: 1580 nM
EC50 (read off the curve) [4]: ~10 nM
binding result [5]: no binding (tested: log M -6 (1e-6 M))
Trimeric human ARG2 EIA IC50 [6]: 964 nM
EC50 (read off the curve) [7]: ~20 nM

B3: C0021158-fgl2 recombinant human IgG1 (antibody, V domains shown)
VH: EVQLLESGGGLVQPGGSLRLSCAASGFTFRYEVAAWVRQAPGKGLEWVSAISGPIPKGYYADSVKGRFTISRDNSKNTLYLQMNSLRAEDTAVYYCARLRADLGLYMDLWGRGTLVTVSS
VL: B1 VL with S53A, P56T, S57A, S94E, S95L, L96T, A98N
THP-1 ARG2 EIA IC50 [2]: 3 nM

B4: C0021158 recombinant human IgG1 (antibody, V domains shown)
VH: B3 VH
VL: B1 VL with P56T, S57A, I59V, S94E, S95L, L96T, A98N
THP-1 lysate ARG2 EIA IC50 [8]: 5.36 nM
THP-1 ARG2 EIA IC50 [2]: 2.3 nM
EC50, In Presence of rhARG2 (T cell proliferation) [9]: 157 nM
Maximum % Proliferation, In Presence of rhARG2 [9]: 90%

B5: C0021180 Fab (Fab, V domains shown)
VH: B3 VH
VL: QSVLTQPPTVSAAPGRKVTISCSGSSSNIGDHHVSWYQQLPGAAPKLLIYDTDHMASGIPDRFSGSRSGTSATLGITGLQTGDEADYYCGTWDSSLSALVFGGGTKLTVL
notes: Human Fab
Kd [10]: 0.437 nM
koff [10]: 0.000122 s⁻¹
kon [10]: 278000 M⁻¹ s⁻¹
Kd [11]: 0.353 nM
koff [11]: 0.000135 s⁻¹
kon [11]: 381000 M⁻¹ s⁻¹
binding result [12]: no binding (tested: up to 120 nM Fab)

B6: C0020065 recombinant human IgG1 (antibody, V domains shown)
VH: GVNLRESGGGVVQPGRSLRLSCAASGFTFSSYAMHWVRQAPGKGLEWVAVISYDGSNKYYVDSVKGRFTISRDNSKNTLYLQMNSLRAEDTAVYYCARDSSQLWFDYWGRGTLVTVSS
VL: QSVVTQPPSVSGAPGQRVTISCTGSSSNIGTGYDVHWYQQLPGTAPKLLIYGNSNRPSGVPDRFSGSKSGTSASLAITGLQAEDEADYYCQSYDSSLSGSVVFGGGTQLTVL
IC50 (read off the curve) [1]: ~6 nM

B7: C0020065 scFv (scFv, V domains shown)
VH: B6 VH
VL: B6 VL
notes: c-myc tagged scFv
binding result [4]: binds
binding result [5]: no binding (tested: log M -6 (1e-6 M))
